Laboratory results reported in PMC10237653.

Legend:
[1] = target: GST-fused AjTmod after the addition of His-fused STPKLRR (phosphorylated AjTmod) (Apostichopus japonicus); assay: MST; as a4, but His-fused STPKLRR (5 uM) added to GSTTmod/His-fused actin and incubated for 10 min
[2] = target: GST-fused AjTmod (complete AjTmod sequence) (Apostichopus japonicus); assay: MST; Monolith NT.115; NT-647-NHS labelled protein (about 5 uM) with 16 serial concentrations of unlabelled His-fused actin; 50 mM Tris-HCl pH 8.0, 0.02% Tween 20; 25 °C

His-fused actin (natural protein)
Kd [1]: 7.16 nM | Kd [2]: 1.46 nM
